Test results as given in IntAct's records for PubMed 25789606.

B1: Ameloblastin (Homo sapiens), Q9NP70 (parent)
chain: MSASKIPLFKMKDLILILCLLEMSFAVPFFPQQSGTPGMASLSLETMRQLGSLQRLNTLSQYSRYGFGKSFNSLWMHGLLPPHSSLPWMRPREHETQQYEYSLPVHPPPLPSQPSLKPQQPGLKPFLQSAAATTNQATALKEALQPPIHLGHLPLQEGELPLVQQQVAPSDKPPKPELPGVDFADPQGPSLPGMDFPDPQGPSLPGLDFADPQGSTIFQIARLISHGPMPQNKQSPLYPGMLYVPFGANQLNAPARLGIMSSEEVAGGREDPMAYGAMFPGFGGMRPGFEGMPHNPAMGGDFTLEFDSPVAATKGPENEEGGAQGSPMPEANPDNLENPAFLTELEPAPHAGLLALPKDDIPGLPRSPSGKMKGLPSVTPAAADPLMTPELADVYRTYDADMTTSVDFQEEATMDTTMAPNSLQTSMPGNKAQEPEMMHDAWHFQEP

Variants of: B1
Conditions: with fa20c_human FAM20C

Effect of a mutation on the interaction, with no effect:
MSASKIPLFKMKDLILILCLLEMSFAVPFFPQQSGAPGMASLSLETMRQLGSLQRLNTLSQYSRYGFGKSFNSLWMHGLLPPHSSLPWMRPREHETQQYEYSLPVHPPPLPSQPSLKPQQPGLKPFLQSAAATTNQATALKEALQPPIHLGHLPLQEGELPLVQQQVAPSDKPPKPELPGVDFADPQGPSLPGMDFPDPQGPSLPGLDFADPQGSTIFQIARLISHGPMPQNKQSPLYPGMLYVPFGANQLNAPARLGIMSSEEVAGGREDPMAYGAMFPGFGGMRPGFEGMPHNPAMGGDFTLEFDSPVAATKGPENEEGGAQGSPMPEANPDNLENPAFLTELEPAPHAGLLALPKDDIPGLPRSPSGKMKGLPSVTPAAADPLMTPELADVYRTYDADMTTSVDFQEEATMDTTMAPNSLQTSMPGNKAQEPEMMHDAWHFQEP [T36A]
MSASKIPLFKMKDLILILCLLEMSFAVPFFPQQSGTPGMASLSLEAMRQLGSLQRLNTLSQYSRYGFGKSFNSLWMHGLLPPHSSLPWMRPREHETQQYEYSLPVHPPPLPSQPSLKPQQPGLKPFLQSAAATTNQATALKEALQPPIHLGHLPLQEGELPLVQQQVAPSDKPPKPELPGVDFADPQGPSLPGMDFPDPQGPSLPGLDFADPQGSTIFQIARLISHGPMPQNKQSPLYPGMLYVPFGANQLNAPARLGIMSSEEVAGGREDPMAYGAMFPGFGGMRPGFEGMPHNPAMGGDFTLEFDSPVAATKGPENEEGGAQGSPMPEANPDNLENPAFLTELEPAPHAGLLALPKDDIPGLPRSPSGKMKGLPSVTPAAADPLMTPELADVYRTYDADMTTSVDFQEEATMDTTMAPNSLQTSMPGNKAQEPEMMHDAWHFQEP [T46A]
MSASKIPLFKMKDLILILCLLEMSFAVPFFPQQAGTPGMASLSLETMRQLGSLQRLNTLSQYSRYGFGKSFNSLWMHGLLPPHSSLPWMRPREHETQQYEYSLPVHPPPLPSQPSLKPQQPGLKPFLQSAAATTNQATALKEALQPPIHLGHLPLQEGELPLVQQQVAPSDKPPKPELPGVDFADPQGPSLPGMDFPDPQGPSLPGLDFADPQGSTIFQIARLISHGPMPQNKQSPLYPGMLYVPFGANQLNAPARLGIMSSEEVAGGREDPMAYGAMFPGFGGMRPGFEGMPHNPAMGGDFTLEFDSPVAATKGPENEEGGAQGSPMPEANPDNLENPAFLTELEPAPHAGLLALPKDDIPGLPRSPSGKMKGLPSVTPAAADPLMTPELADVYRTYDADMTTSVDFQEEATMDTTMAPNSLQTSMPGNKAQEPEMMHDAWHFQEP [S34A]
MSASKIPLFKMKDLILILCLLEMSFAVPFFPQQSGTPGMAALSLETMRQLGSLQRLNTLSQYSRYGFGKSFNSLWMHGLLPPHSSLPWMRPREHETQQYEYSLPVHPPPLPSQPSLKPQQPGLKPFLQSAAATTNQATALKEALQPPIHLGHLPLQEGELPLVQQQVAPSDKPPKPELPGVDFADPQGPSLPGMDFPDPQGPSLPGLDFADPQGSTIFQIARLISHGPMPQNKQSPLYPGMLYVPFGANQLNAPARLGIMSSEEVAGGREDPMAYGAMFPGFGGMRPGFEGMPHNPAMGGDFTLEFDSPVAATKGPENEEGGAQGSPMPEANPDNLENPAFLTELEPAPHAGLLALPKDDIPGLPRSPSGKMKGLPSVTPAAADPLMTPELADVYRTYDADMTTSVDFQEEATMDTTMAPNSLQTSMPGNKAQEPEMMHDAWHFQEP [S41A]
